Target: the molecule itself
Test: SEC; Superdex 75 (10/300) column, 50 mM sodium phosphate pH 7.0, 0.4 mL/min, calibrated with four standards (LMW calibration kit); mass estimated from elution

B1: staphylococcal accessory regulator A (SarA) (natural protein)
chain: MAITKINDCFELLSMVTYADKLKSLIKKEFSISFEEFAVLTYISENKEKEYYLKDIINHLNYKQPQVVKAVKILSQEDYFDKKRNEHDERTVLILVNAQQRKKIESLLSRVNKRITEANNEIEL
notes: SarA, Staphylococcus aureus strain MRSA252; the 375 bp sarA coding region cloned in pET22b with the pelB leader removed; a 124-residue protein; the entry of strain MRSA252 is not recalled; No tag is described; The reverse primer appears to carry stop codons before the HindIII site, so the His tag of pET22b is probably not on the protein (surmise); Observed mass 14,635 D, theoretical mass 14,586 …
stoichiometry N: 2

— publication PMC3431356, “Staphylococcus aureus Methicillin-Resistance Factor fmtA Is Regulated by the Global Regulator SarA” (PLoS ONE, 2012)
